Assays:
[1] = biological target: EncA-157ST (Myxococcus xanthus encapsulin shell protein EncA with the SpyTag peptide inserted between residues 157 and 158) (Myxococcus xanthus | Streptococcus pyogenes) (UniProt Q1D6H4); experiment: negative-stain TEM; purified empty (unloaded) nanocompartments, 0.01-0.03 mg/mL, uranyl acetate 0.5% stain; subunit number read from the particle diameter
[2] = biological target: EncA-157ST (Myxococcus xanthus encapsulin shell protein EncA with the SpyTag peptide inserted between residues 157 and 158) (Myxococcus xanthus | Streptococcus pyogenes) (UniProt Q1D6H4); experiment: negative-stain TEM; purified nanocompartments loaded with sfGFP-CLP (coexpressed), 0.01-0.03 mg/mL, uranyl acetate 0.5% stain; subunit number read from the particle diameter
[3] = biological target: EncA-ST (Myxococcus xanthus encapsulin shell protein EncA with the SpyTag peptide fused to its C-terminus) (Myxococcus xanthus | Streptococcus pyogenes); experiment: negative-stain TEM; purified empty (unloaded) nanocompartments, 0.01-0.03 mg/mL, uranyl acetate 0.5% stain; subunit number read from the particle diameter
[4] = biological target: EncA-ST (Myxococcus xanthus encapsulin shell protein EncA with the SpyTag peptide fused to its C-terminus) (Myxococcus xanthus | Streptococcus pyogenes); experiment: negative-stain TEM; purified nanocompartments loaded with sfGFP-CLP (coexpressed), 0.01-0.03 mg/mL, uranyl acetate 0.5% stain; subunit number read from the particle diameter

Row | Substance | stoichiometry N [1] | stoichiometry N [2] | stoichiometry N [3] | stoichiometry N [4]
1 | EncA-157ST (Myxococcus xanthus encapsulin shell protein EncA with the SpyTag peptide inserted between residues 157 and 158) (from UniProt Q1D6H4 1-157; Q1D6H4 158-287) | 60 subunits | 180 subunits | – | –
2 | EncA-ST (Myxococcus xanthus encapsulin shell protein EncA with the SpyTag peptide fused to its C-terminus) | – | – | 60 subunits | 180 subunits

Reference: paper PMC11866011
